Laboratory results: patent US20120156193A1 (IMMUNAS PHARMA, published 2012)
Changes are numbered by the printed parent chain.

B1: IR-003 antibody (antibody, V domains shown)
VH: QVTLKESGPGILQPSQTLSLTCSFSGFSLSTSGMGVSWIRQPSGKGLEWLAHIYWDDDKRYNPSLKSRLTISKDTSSNQVFLKITSVDTADTATYYCARRGEVRRRGYYAMDYWGQGTSVTVSS
VL: DVVMTQTPLSLPVSLGDQASISCRSSQSLVHSNGNTYLHWYLQKPGQSPKLLIYKVSNRFSGVPDRFSGSGSGTDFTLKISRVEAEDLGVYFCSQSTHVPLTFGAGTKLELK
notes: Mouse monoclonal from a hybridoma (BALB/c); constant regions are not
B2: IR-103 antibody (antibody, V domains shown)
VH: DVQLVESGGGLVQPGGSRKLSCAASGFTFSSFGMHWVRQAPEKGLEWVAYISSGSSTIYYADTVKGRFTISRDNPKNTLFLQMTSLRSEDTAMYYCARSPLLRLQGLAYWGQGTLVTVSA
VL: B1 VL with V3L, L29I, H39E, F92Y, S94F, S96G, T97S, L101P, A105G, L111I
notes: Mouse monoclonal from a hybridoma
B3: IR-130 antibody (antibody, V domains shown)
VH: EVKLVESGGGLVQPGGSLKLSCATSGFTFSDYYMYWVRQTPEKRLEWVAYISNGGGSTYYPDTVKGRFTISRDNAKNTLYLQMSRLKSEDTAMYYCARGTSYGSSLHYYAMDYWGQGTSVTVSS
VL: B1 VL
notes: as for B2
B4: IR-148 antibody (antibody, V domains shown)
VH: DVQLVESGGGLVQPGGSRKLSCAASGFTFSSFGMHWVRQAPEKGLEWVAYISSGSSTIYYADTVKGRFTISRDNPKNTLFLQMTSLRSEDTAMYYCARDYYGMDYWGQGTSVTVSS
VL: B1 VL
notes: as for B2
B5: IR-091 antibody (antibody, V domains shown)
VH: QVTLKESGPGILKPSQTLSLTCSFSGFSLSTSGMGVGWIRQPSGKGLEWLAHIWWDDDKYYNPSLKSQLTISKDTSRNQVFLKITSVDTADTATYYCARRGLRRGDYFDYWGQGTTLTVSS
VL: B1 VL with V3L, L29I, H39E, F92Y, S94F, S96G, T97S
notes: as for B2
B6: IR-099 antibody (antibody, V domains shown)
VH: DVQLVESGGGLVQPGGSRKLSCAASGFTFSRFGMHWVRQAPEKGLEWVAYISSGRSTIYYADTVKGRFTISRDNPKNTLFLQMTSLRSEDTAMYYCARGGGNYVGAMDYWGQGTSVTVSS
VL: DAVMTQTPLSLPVSLGDQASISCRSSQSLENSNGNTYLNWYLQKPGQSPQLLIYRVSNRFSGVLDRFSGSGSGTDFTLKISRVEAEDLGVYFCLQVTHVPPTFGGGTKLEIK
notes: as for B2

target: T1, A beta 1-40 oligomer (synthetic A beta1-40, HCl form, 0.1 mg/ml in PBS, incubated at 37 degrees C for one … (UniProt P05067 672-711)); test: SPR, Biacore 3000, A beta oligomer on CM5 chip, antibody as analyte
T1 construct: domain: A beta 1-40; Non-fibrous assembly of many copies of the same peptide; also called A beta oligomer
Description: The analysis was carried out by Surface Plasmon Resonance (SPR) using Biacore 3000 (GE Healthcare Sciences).

| Kd | koff | kon | Binder |
| --- | --- | --- | --- |
| 24.5 nM | 0.00232 s⁻¹ | 94800 M⁻¹ s⁻¹ | B1 |
| 43.9 nM | 0.00571 s⁻¹ | 130000 M⁻¹ s⁻¹ | B2 |
| 667 nM | 0.11 s⁻¹ | 165000 M⁻¹ s⁻¹ | B3 |
| 38.6 nM | 0.000931 s⁻¹ | 24100 M⁻¹ s⁻¹ | B4 |
| 7.37 nM | 0.00188 s⁻¹ | 255000 M⁻¹ s⁻¹ | B5 |
| 9.3 nM | 0.00252 s⁻¹ | 271000 M⁻¹ s⁻¹ | B6 |
